The record followed here is PMC10966351.

This assay has as its target BlaC P107T (Mycobacterium tuberculosis). Put plainly: crystal structure; sitting-drop vapor diffusion at 20°C, protein 10 mg/mL in 100 mM sodium phosphate buffer pH 6.4; four molecules in the asymmetric unit.

As to BlaC P107T (enzyme), the stoichiometry N (usually the number of molecules, sites or subunits per partner or assembly) is 2.
